The target of this assay is CD150 (signaling lymphocyte activation molecule, SLAM) on EBV-infected human B cells, Raji cells or IM-9 cells (human) (UniProt Q13291). Description: cell-based or functional assay.
UniProt Q13291, sequence (Q13291 21-335): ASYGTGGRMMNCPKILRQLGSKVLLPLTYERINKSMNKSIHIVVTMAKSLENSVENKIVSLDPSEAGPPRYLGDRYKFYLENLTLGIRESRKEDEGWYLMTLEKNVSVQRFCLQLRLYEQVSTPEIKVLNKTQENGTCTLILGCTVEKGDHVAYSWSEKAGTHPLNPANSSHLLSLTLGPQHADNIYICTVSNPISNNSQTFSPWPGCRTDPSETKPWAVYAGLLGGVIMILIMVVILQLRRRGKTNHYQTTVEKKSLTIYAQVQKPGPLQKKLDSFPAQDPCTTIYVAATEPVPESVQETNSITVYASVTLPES

Regarding “anti-CD150 mAb (clone IPO-3, Affinity Bioreagents) (antibody)”, the IL-1A production, mRNA level (real-time RT-PCR) turned out to be 55 fold and the IL-1A production, protein level (ELISA) is 23 fold.

These data come from patent US20140242694A1.
